In paper doi:10.1101/2024.11.24.625074, “Assembly and lipid-gating of LRRC8A:D volume-regulated anion channels” (bioRxiv, 2024):

Target: the molecule itself
Assay: cryo-EM structure; LRRC8A_(BRIL):D complexes co-expressed in Sf9, purified in 20 mM HEPES, 150 mM KCl, 1 mM EDTA, 0.02% GDN, pH 7.4; α-BRIL Fab BAG2 and α-Fab Nb added as fiducials; two conformations resolved by 3D variability analysis, C1 symmetry

B1: Mus musculus LRRC8D (natural protein, UniProt Q8BGR2 1-859, looked up)
chain: MFTLAEVASLNDIQPTYRILKPWWDVFMDYLAVVMLMVAIFAGTMQLTKDQVVCLPVLPSPANSKAHTPPGNADITTEVPRMETATHQDQNGQTTTNDVAFGTSAVTPDIPLQATHPHAESTLPNQEAKKEKRDPTGRKTNLDFQQYVFINQMCYHLALPWYSKYFPYLALIHTIILMVSSNFWFKYPKTCSKVEHFVSILGKCFESPWTTKALSETACEDSEENKQRITGAQTLPKHVSTSSDEGSPSASTPMINKTGFKFSAEKPVIEVPSMTILDKKDGEQAKALFEKVRKFRAHVEDSDLIYKLYVVQTLIKTAKFIFILCYTANFVNAISFEHVCKPKVEHLTGYEVFECTHNMAYMLKKLLISYISIICVYGFICLYTLFWLFRIPLKEYSFEKVREESSFSDIPDVKNDFAFLLHMVDQYDQLYSKRFGVFLSEVSENKLREISLNHEWTFEKLRQHVSRNAQDKQELHLFMLSGVPDAVFDLTDLDVLKLELIPEAKIPAKISQMTNLQELHLCHCPAKVEQTAFSFLRDHLRCLHVKFTDVAEIPAWVYLLKNLRELYLIGNLNSENNKMIGLESLRELRHLKILHVKSNLTKVPSNITDVAPHLTKLVIHNDGTKLLVLNSLKKMMNVAELELQNCELERIPHAIFSLSNLQELDLKSNNIRTIEEIISFQHLKRLTCLKLWHNKIVAIPPSITHVKNLESLYFSNNKLESLPTAVFSLQKLRCLDVSYNNISTIPIEIGLLQNLQHLHITGNKVDILPKQLFKCVKLRTLNLGQNCIASLPEKISQLTQLTQLELKGNCLDRLPAQLGQCRMLKKSGLVVEDQLFDTLPLEVKEALNQDVNVPFANGI
notes: the tag was cut off with TEV protease during purification, so a short C-terminal remnant of the linker and the cleavage site is left; Two copies stand in the hexameric channel; also called mmLRRC8D; LRRC8D subunit; source: Sf9 cells, co-expressed with LRRC8A_(BRIL) from one baculovirus; purified in GDN (α-mCherry nanobody resin, α-GFP nanobody resin, Superose 6 Increase); not shown: mCherry, …
B1: binds.
